Results taken from publication PMC7954794, “Protein context shapes the specificity of SH3 domain-mediated interactions in vivo” (Nature Communications, 2021).

B1: YGR178C (protein, UniProt P53297 1-722, looked up)
PAB1-binding protein 1: MKGNFRKRDSSTNSRKGGNSDSNYTNGGVPNQNNSSMFYENPEITRNFDDRQDYLLANSIGSDVTVTVTSGVKYTGLLVSCNLESTNGIDVVLRFPRVADSGVSDSVDDLAKTLGETLLIHGEDVAELELKNIDLSLDEKWENSKAQETTPARTNIEKERVNGESNEVTKFRTDVDISGSGREIKERKLEKWTPEEGAEHFDINKGKALEDDSASWDQFAVNEKKFGVKSTFDEHLYTTKINKDDPNYSKRLQEAERIAKEIESQGTSGNIHIAEDRGIIIDDSGLDEEDLYSGVDRRGDELLAALKSNSKPNSNKGNRYVPPTLRQQPHHMDPAIISSSNSNKNENAVSTDTSTPAAAGAPEGKPPQKTSKNKKSLSSKEAQIEELKKFSEKFKVPYDIPKDMLEVLKRSSSTLKSNSSLPPKPISKTPSAKTVSPTTQISAGKSESRRSGSNISQGQSSTGHTTRSSTSLRRRNHGSFFGAKNPHTNDAKRVLFGKSFNMFIKSKEAHDEKKKGDDASENMEPFFIEKPYFTAPTWLNTIEESYKTFFPDEDTAIQEAQTRFQQRQLNSMGNAVPGMNPAMGMNMGGMMGFPMGGPSASPNPMMNGFAAGSMGMYMPFQPQPMFYHPSMPQMMPVMGSNGAEEGGGNISPHVPAGFMAAGPGAPMGAFGYPGGIPFQGMMGSGPSGMPANGSAMHSHGHSRNYHQTSHHGHHNSSTSGHK
B2: YMR080C (protein, UniProt P30771 1-971, looked up)
ATP-dependent helicase NAM7: MVGSGSHTPYDISNSPSDVNVQPATQLNSTLVEDDDVDNQLFEEAQVTETGFRSPSASDNSCAYCGIDSAKCVIKCNSCKKWFCNTKNGTSSSHIVNHLVLSHHNVVSLHPDSDLGDTVLECYNCGRKNVFLLGFVSAKSEAVVVLLCRIPCAQTKNANWDTDQWQPLIEDRQLLSWVAEQPTEEEKLKARLITPSQISKLEAKWRSNKDATINDIDAPEEQEAIPPLLLRYQDAYEYQRSYGPLIKLEADYDKQLKESQALEHISVSWSLALNNRHLASFTLSTFESNELKVAIGDEMILWYSGMQHPDWEGRGYIVRLPNSFQDTFTLELKPSKTPPPTHLTTGFTAEFIWKGTSYDRMQDALKKFAIDKKSISGYLYYKILGHQVVDISFDVPLPKEFSIPNFAQLNSSQSNAVSHVLQRPLSLIQGPPGTGKTVTSATIVYHLSKIHKDRILVCAPSNVAVDHLAAKLRDLGLKVVRLTAKSREDVESSVSNLALHNLVGRGAKGELKNLLKLKDEVGELSASDTKRFVKLVRKTEAEILNKADVVCCTCVGAGDKRLDTKFRTVLIDESTQASEPECLIPIVKGAKQVILVGDHQQLGPVILERKAADAGLKQSLFERLISLGHVPIRLEVQYRMNPYLSEFPSNMFYEGSLQNGVTIEQRTVPNSKFPWPIRGIPMMFWANYGREEISANGTSFLNRIEAMNCERIITKLFRDGVKPEQIGVITPYEGQRAYILQYMQMNGSLDKDLYIKVEVASVDAFQGREKDYIILSCVRANEQQAIGFLRDPRRLNVGLTRAKYGLVILGNPRSLARNTLWNHLLIHFREKGCLVEGTLDNLQLCTVQLVRPQPRKTERPMNAQFNVESEMGDFPKFQDFDAQSMVSFSGQIGDFGNAFVDNTELSSYINNEYWNFENFKSAFSQKQNRNEIDDRNLYQEEASHLNSNFARELQREEQKHELSKDFSNLGI
B3: YPL246C (protein, UniProt Q12270 1-262, looked up)
Rhomboid-type serine protease …: MNWKSYVFPGGHPPAALTTGLVVFLTAIYLLSFIFALREDLSLAPESLFKLQMSRLSLYPLIHLSLPHLLFNVLAIWAPLNLFEETHGTVYTGVFLNLSALFAGILYCLLGKLLYPEALVAGASGWCFTLFAYYSFKESQIRPRTRIFRTDYSIPTLYTPLVLLVAIAVVIPGSSFWGHFFGLCVGYAIGYKESWFNKITPPGWIITKIEKSLDGLIRLIPWGIKYYRDEDIDRTKDYEPLMSTETPLPLHNDNSGTVLGTA
B4: YNR007C (protein, UniProt P40344 1-310, looked up)
Autophagy-related protein 3: MIRSTLSSWREYLTPITHKSTFLTTGQITPEEFVQAGDYLCHMFPTWKWNEESSDISYRDFLPKNKQFLIIRKVPCDKRAEQCVEVEGPDVIMKGFAEDGDEDDVLEYIGSETEHVQSTPAGGTKDSSIDDIDELIQDMEIKEEDENDDTEEFNAKGGLAKDMAQERYYDLYIAYSTSYRVPKMYIVGFNSNGSPLSPEQMFEDISADYRTKTATIEKLPFYKNSVLSVSIHPCKHANVMKILLDKVRVVRQRRRKELQEEQELDGVGDWEDLQDDIDDSLRVDQYLIVFLKFITSVTPSIQHDYTMEGW
B5: YJL151C (protein, UniProt P14359 1-133, looked up)
Protein SNA3: MDRDHINDHDHRMSYSINKDDLLLMVLAVFIPPVAVWKRKGMFNRDTLLNLLLFLLLFFPAIIHACYVVYETSSERSYDLSRRHATAPAVDRDLEAHPAEESQAQPPAYDEDDEAGADVPLMDNKQQLSSGRT
B6: YLR258W (protein, UniProt P27472 1-705, looked up)
Glycogen [starch] synthase …: MSRDLQNHLLFETATEVANRVGGIYSVLKSKAPITVAQYKDHYHLIGPLNKATYQNEVDILDWKKPEAFSDEMRPVQHALQTMESRGVHFVYGRWLIEGAPKVILFDLDSVRGYSNEWKGDLWSLVGIPSPENDFETNDAILLGYTVAWFLGEVAHLDSQHAIVAHFHEWLAGVALPLCRKRRIDVVTIFTTHATLLGRYLCASGSFDFYNCLESVDVDHEAGRFGIYHRYCIERAAAHSADVFTTVSQITAFEAEHLLKRKPDGILPNGLNVIKFQAFHEFQNLHALKKEKINDFVRGHFHGCFDFDLDNTLYFFIAGRYEYKNKGADMFIEALARLNYRLKVSGSKKTVVAFIVMPAKNNSFTVEALKGQAEVRALENTVHEVTTSIGKRIFDHAIRYPHNGLTTELPTDLGELLKSSDKVMLKRRILALRRPEGQLPPIVTHNMVDDANDLILNKIRQVQLFNSPSDRVKMIFHPEFLNANNPILGLDYDEFVRGCHLGVFPSYYEPWGYTPAECTVMGVPSITTNVSGFGAYMEDLIETNQAKDYGIYIVDRRFKAPDESVEQLVDYMEEFVKKTRRQRINQRNRTERLSDLLDWKRMGLEYVKARQLALRRGYPDQFRELVGEELNDSNMDALAGGKKLKVARPLSVPGSPRDLRSNSTVYMTPGDLGTLQEVNNADDYFSLGVNPAADDDDDGPYADDS
B7: YOR229W (protein, UniProt Q12206 1-467, looked up)
Transcriptional modulator WTM2: MAKSKSSQGASGARRKPAPSLYQHISSFKPQFSTRVDDVLHFSKTLTWRSEIIPDKSKGTLTTSLLYSQGSDIYEIDTTLPLKTFYDDDDDDDNDDDDEEGNGKTKSAATPNPEYGDAFQDVEGKPLRPKWIYQGETVAKMQYLESSDDSTAIAMSKNGSLAWFRDEIKVPVHIVQEMMGPATRYSSIHSLTRPGSLAVSDFDVSTNMDTVVKSQSNGYEEDSILKIIDNSDRPGDILRTVHVPGTNVAHSVRFFNNHLFASCSDDNILRFWDTRTADKPLWTLSEPKNGRLTSFDSSQVTENLFVTGFSTGVIKLWDARAVQLATTDLTHRQNGEEPIQNEIAKLFHSGGDSVVDILFSQTSATEFVTVGGTGNVYHWDMEYSFSRNDDDNEDEVRVAAPEELQGQCLKFFHTGGTRRSSNQFGKRNTVALHPVINDFVGTVDSDSLVTAYKPFLASDFIGRGYDD

Tested on: ABP1
Assay: DHFR-PCA on solid medium, bait ABP1 (Fig. 1B)
Type: cell-based, Saccharomyces cerevisiae
Conditions: bait ABP1, label = prey; for medrep (log2 median colony size normalized to plate background, PCA score): 2-4 replicates; for Ratio (SH3-deleted/WT medrep): only significant differences showed, PPIs completely lost have a ratio of 0.1 and the gained PPIs 2.5
Excerpt: Supplement 41467_2021_21873_MOESM8_ESM.xlsx, sheet "Fig1B" | column: medsize; medrep; Ratio; Score

Molecule	medrep (log2 median colony size normalized to plate background, PCA score)	Ratio (SH3-deleted/WT medrep)
B1	1.414	2.5
B2	1.542	2.5
B3	1.384	2.5
B4	1.566	2.5
B5	1.425	2.5
B6	1.989	2.5
B7	1.855	2.5
